Molecular target: unphosphorylated ubiquitin

B1: PINK1-3x Flag isolated from CCCP-treated cells (protein)
chain: MAVRQALGRGLQLGRALLLRFTGKPGRAYGLGRPGPAAGCVRGERPGWAAGPGAEPRRVGLGLPNRLRFFRQSVAGLAARLQRQFVVRAWGCAGPCGRAVFLAFGLGLGLIEEKQAESRRAVSACQEIQAIFTQKSKPGPDPLDTRRLQGFRLEEYLIGQSIGKGCSAAVYEATMPTLPQNLEVTKSTGLLPGRGPGTSAPGEGQERAPGAPAFPLAIKMMWNISAGSSSEAILNTMSQELVPASRVALAGEYGAVTYRKSKRGPKQLAPHPNIIRVLRAFTSSVPLLPGALVDYPDVLPSRLHPEGLGHGRTLFLVMKNYPCTLRQYLCVNTPSPRLAAMMLLQLLEGVDHLVQQGIAHRDLKSDNILVELDPDGCPWLVIADFGCCLADESIGLQLPFSSWYVDRGGNGCLMAPEVSTARPGPRAVIDYSKADAWAVGAIAYEIFGLVNPFYGQGKAHLESRSYQEAQLPALPESVPPDVRQLVRALLQREASKRPSARVAANVLHLSLWGEHILALKNLKLDKMVGWLLQQSAATLLANRLTEKCCVETKMKMLFLANLECETLCQAALLLCSWRAAL
For B1, the “phosphorylation of ubiquitin (Phos-tag assay)” value was “PINK1 isolated from CCCP-treated cells phosphorylates ubiquitin”.
